# Measurements published in article PMC4499774.
# B1: MED4 CsoS1D co-expressed with GST-MED4 CsoS2 (pFC119) (natural protein)
# chain: MEPTSSLNRGDRKKGSSLVTGSEVQSQSNGASCFITTDSEKSLVSRQASQVEQIELRTYVFLDSLQPQLAAYMGTVSRGFLPIPGDSCLWMEVSPGMAVHRVTDIALKASNVRLGQMIVERAFGSLALYHKDQSTVLHSGDVVLDAIGSEVRKRTKPSTSWTEVICAITPDHAVLINRQNRSGSMIQSGMSMFILETEPAGYVLKAANEAEKSANITIIDVKAVGAFGRLTLAGKEGDVEEAAAAAIRAIDQISNY
# Target: GST-MED4 CsoS2 (pFC005) (Prochlorococcus marinus str. MED4)
# Assay: pull-down; E. coli co-expressing GST-MED4 CsoS2 (pFC005) with CsoS1 and CsoS1D (pFC119); Glutathione-Sepharose magnetic beads; elution by SDS-PAGE, densitometry and Western blot
# Sequence of GST-MED4 CsoS2 (pFC005) (Prochlorococcus marinus str. MED4) (Q7V2C8 whole entry): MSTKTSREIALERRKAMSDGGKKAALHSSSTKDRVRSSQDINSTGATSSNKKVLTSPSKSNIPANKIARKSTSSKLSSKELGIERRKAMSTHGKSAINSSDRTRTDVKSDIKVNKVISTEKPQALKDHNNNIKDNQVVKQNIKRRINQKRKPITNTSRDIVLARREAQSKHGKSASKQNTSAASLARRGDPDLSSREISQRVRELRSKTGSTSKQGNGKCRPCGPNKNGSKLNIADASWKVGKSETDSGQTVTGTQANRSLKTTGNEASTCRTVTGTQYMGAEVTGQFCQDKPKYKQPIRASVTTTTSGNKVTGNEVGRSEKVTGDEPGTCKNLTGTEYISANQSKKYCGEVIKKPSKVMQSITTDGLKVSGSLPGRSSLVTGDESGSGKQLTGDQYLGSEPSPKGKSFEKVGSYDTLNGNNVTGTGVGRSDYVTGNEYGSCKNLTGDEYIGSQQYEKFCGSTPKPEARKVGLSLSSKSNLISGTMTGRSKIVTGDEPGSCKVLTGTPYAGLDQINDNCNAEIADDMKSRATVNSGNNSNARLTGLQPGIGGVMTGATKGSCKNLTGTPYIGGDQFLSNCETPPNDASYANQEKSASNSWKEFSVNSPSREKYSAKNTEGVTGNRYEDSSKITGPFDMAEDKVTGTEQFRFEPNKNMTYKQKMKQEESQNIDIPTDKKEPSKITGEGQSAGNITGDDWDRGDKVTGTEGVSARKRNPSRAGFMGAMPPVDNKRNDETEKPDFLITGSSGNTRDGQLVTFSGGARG
binder,measurement,value
B1,molar ratio of CsoS1D to GST-CsoS2 in the elution fraction (densitometry),5 molar ratio
